Residue numbers refer to the chain shown, from its start.
B1: GNbAC1 murine monoclonal antibody (IgG1/kappa) (antibody, V domains shown)
VH: QVQLQQSGAELVRPGAPVTLSCKASGYTFTDYEMHWVKQTPVHGLEWIGAVAPETGGTAYNQKFKGKATLTAAKSSSTAYMELRSLTSEDSAVYYCTSTVVPFAYWGQGTLVTVSA
VL: QIVLTQSPAIMSASPGEKVTISCSASSSVSYMYWYQQKPGSSPKAWIYRTSNLASGVPGRFSGSGSGTSYSLTISSMEAEDAATYYCQQYQSLPLTFGSGTKLEIK
notes: Murine IgG1/kappa from hybridoma; also called murine IgG1; muIgG
B2: Chimeric GNb AC1 IgG4 (human IgG4 constant regions with murine VH and VL) (antibody, V domains shown)
VH: B1 VH with P17S
VL: QIVLTQSPAIMSASPGEKVTISCSASSSVSYMYWYQQKPGSSPKAWIYRTSNLASGVPGRFSGSGSGTSYSLTISSMEAEDAATYYCQQYQSLPLTFGSGTKLEIKR
notes: also called GNbAC1 chimeric IgG4; GNbAC1-IgC4
B3: Chimeric GNb AC1 IgG1 (human IgG1 constant regions with murine VH and VL) (antibody, V domains shown)
VH: B1 VH
VL: B1 VL
notes: Human IgG1 heavy constant region and human kappa constant region, made in CHO cells; also called GNbAC1 chimeric IgG1; Ligand in human IgG1

Legend:
[1] = molecular target: T1, MSRV ENV surface domain fragment (ENV-SU), recombinant from E. coli (MSRV (Multiple Sclerosis associated …)); assay: cell-based or functional assay
T1 chain: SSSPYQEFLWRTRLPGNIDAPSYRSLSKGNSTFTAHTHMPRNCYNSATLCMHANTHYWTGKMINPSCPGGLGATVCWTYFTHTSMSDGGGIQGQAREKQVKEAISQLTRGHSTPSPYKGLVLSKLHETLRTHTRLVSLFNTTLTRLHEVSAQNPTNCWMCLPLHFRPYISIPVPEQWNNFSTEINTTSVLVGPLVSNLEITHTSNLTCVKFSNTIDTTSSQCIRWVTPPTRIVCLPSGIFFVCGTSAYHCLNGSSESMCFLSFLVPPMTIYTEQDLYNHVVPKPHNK

[2] = molecular target: T2, MSRV complete ENV protein (ENV-T), recombinant from E. coli (MSRV (Multiple Sclerosis associated …)); assay: ELISA; ENV 0.125 ug/ml coated; mAb 1 ug/ml
T2 construct: also called ENV-T 7A; His-ENV-T
T2 chain: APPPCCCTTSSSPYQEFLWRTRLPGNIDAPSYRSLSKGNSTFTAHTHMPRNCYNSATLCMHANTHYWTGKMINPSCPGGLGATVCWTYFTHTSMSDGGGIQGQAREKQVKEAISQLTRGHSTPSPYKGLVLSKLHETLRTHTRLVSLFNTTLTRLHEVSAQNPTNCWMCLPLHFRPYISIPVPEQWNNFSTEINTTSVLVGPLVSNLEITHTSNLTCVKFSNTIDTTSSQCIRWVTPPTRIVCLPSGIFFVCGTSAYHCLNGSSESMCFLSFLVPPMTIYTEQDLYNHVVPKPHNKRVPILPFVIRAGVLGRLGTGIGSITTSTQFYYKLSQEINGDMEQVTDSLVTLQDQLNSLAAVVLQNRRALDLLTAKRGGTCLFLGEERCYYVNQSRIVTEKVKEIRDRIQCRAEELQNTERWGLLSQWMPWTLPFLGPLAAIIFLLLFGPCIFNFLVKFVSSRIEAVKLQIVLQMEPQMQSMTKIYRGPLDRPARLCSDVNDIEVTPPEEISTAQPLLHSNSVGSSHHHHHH
Description: (§1) Protocol: Incubation 2 h at 37° C. […] Revelation is made by adding OPD substrate and reading optic density with a spectrophotometer after 30 min (Washing steps with PBS are performed between every step).

[3] = molecular target: T2, MSRV complete ENV protein (ENV-T), …; assay: ELISA; ENV 0.0078 ug/ml coated; mAb 1 ug/ml
Description: as §1

[4] = molecular target: T2, MSRV complete ENV protein (ENV-T), …; assay: ELISA; ENV 0.0156 ug/ml coated; mAb 1 ug/ml
Description: as §1

[5] = molecular target: T2, MSRV complete ENV protein (ENV-T), …; assay: ELISA; ENV 0.0625 ug/ml coated; mAb 1 ug/ml
Description: as §1

[6] = molecular target: T2, MSRV complete ENV protein (ENV-T), …; assay: ELISA; ENV-T 7A 1 ug/ml coated; mAb 0.5 ug/ml
Description: as §1

[7] = molecular target: T2, MSRV complete ENV protein (ENV-T), …; assay: ELISA; ENV-T 7A 1 ug/ml coated; mAb 0.0078 ug/ml
Description: as §1

[8] = molecular target: T2, MSRV complete ENV protein (ENV-T), …; assay: ELISA; coated ENV-T 7A 0.0156; ligand 1 microgram
Description: (§2) II-1d Direct ELISA on Microplates Coated with ENV Antigen (ENV-T or ENV-SU as Described Above) [0159] Microwells were coated with 100 μl per well of ENV antigen diluted in 50 mM Sodium Bicarbonate, pH 9.6. Plate were sealed and incubated 2 hours at 37° C. under light agitation. [0160] Microwells were washed 4 times with 250 μl per well of PBS (Phosphate Buffer Saline). After the last, plates were inverted and blotted on absorbent paper to remove any residual buffer. [0161] 100 μl per well of detection antibody according to the present invention (GNbAC1 or its Fab fragment) diluted in PBS+BSA 1% (PBS with 1% of Bovine Serum Albumin) were added. Plate were sealed and incubated 1 hour at room temperature under light agitation. […] Microwells were washed 4 times with 250 μl per well of PBS. After the last, plates were inverted and blotted on absorbent paper to remove any residual buffer. [0163] […] Plate were sealed and incubated 1 hour at room temperature under light agitation. [0164] Microwells were washed 6 times with 250 μl per well of PBS. After the last, plates were inverted and blotted on absorbent paper to remove any residual buffer. [0165] 100 μl par well of Substrate Solution (1 tablet of o-Phenylenediamine (OPD) diluted in 10 ml of 0.05M Phosphate Citrate Buffer pH5+10 μl H2O2 30%, prepared at the last moment) were added. Plates were incubated 30 min at room temperature in the dark. […] 50 μl per well of Stop Solution 2N H2SO₄ were added. [0167] The absorbance was read at 490 nm within 30 minutes of stopping reaction.
(§3) Env-T antigen is coated onto microtiter ELISA plate wells with serial dilutions ranging from 1 μg/ml to about 0.01 μg/ml.

[9] = molecular target: T2, MSRV complete ENV protein (ENV-T), …; assay: ELISA; coated ENV-T 7A 0.03125; ligand 1 microgram
Description: as §2, §3

[10] = molecular target: T2, MSRV complete ENV protein (ENV-T), …; assay: ELISA; coated ENV-T 7A, concentration cell blank (top of series, 1 µg/ml per paragraph 198); ligand 1 microgram
Description: as §2, §3

[11] = molecular target: T2, MSRV complete ENV protein (ENV-T), …; assay: cell-based or functional assay
[12] = molecular target: T1, MSRV ENV surface domain fragment …; assay: cell-based or functional assay

| Binder | IFN-gamma Inhibition (%) [1] | IFN-gamma Response (%) [1] | IFN-gamma pg/ml, PBMC 72 h [1] | IL-6 pg/ml, PBMC 72 h [1] | IL-6 Inhibition (%) [1] | IL-6 Response (%) [1] | optic density [2] | optic density [3] | optic density [4] | optic density [5] | optic density [6] | optic density [7] | optical density [8] | optical density [9] | optical density [10] | IL-6 at 24 h in PBMC culture with ENV-T 0.1 ug/ml, MAb ratio 10/1 (no antibody: 4363) [11] | IFN-g at 72 h in PBMC culture with ENV-SU 0.5 ug/ml, MAb ratio 10/1 (no antibody: 336) [12] |
| --- | --- | --- | --- | --- | --- | --- | --- | --- | --- | --- | --- | --- | --- | --- | --- | --- | --- |
| B1 | 52% | 48% | 270 pg/mL | 42200 pg/mL | 52% | 48% | 0.975 OD | 0.111 OD | 0.186 OD | 0.837 OD | 1.85 OD | 0.13 OD | 1.3 OD | 1.34 OD | 3 OD | – | – |
| B2 | 43% | 57% | 318 pg/mL | 53000 pg/mL | 40% | 60% | 1.56 OD | 0.313 OD | 0.71 OD | 1.55 OD | 2.49 OD | 0.474 OD | 1.02 OD | 1.37 OD | 3 OD | 2270 | 384 |
| B3 | -9% | 109% | 606 pg/mL | 32900 pg/mL | 63% | 37% | 1.82 OD | 0.642 OD | 0.888 OD | 1.85 OD | 2.54 OD | 0.85 OD | 1.26 OD | 1.56 OD | 3 OD | – | – |

— patent publication US20110243962A1 (GENEURO, published 2011)
